# Tested on: high cardiovascular risk patients with hypercholesterolemia
# Test: ODYSSEY LONG TERM: long-term safety and tolerability
# [1] = alirocumab patients with two consecutive LDL-C <25 mg/dL (n = 562), pre-specified analysis
# [2] = all alirocumab patients (n = 1550), pre-specified analysis
# Protocol: Safety parameters (adverse events [including adjudicated cardiovascular events], laboratory data, vital signs, and ECG) were assessed throughout the study.
# Safety endpoints assessed in this trial were: cardiovascular events; allergic events; local tolerability at injection site; other adverse events (including hemolytic anemia); laboratory tests: urinalysis, hematology (red blood cell count, red blood cell distribution width (RDW), reticulocyte count, hemoglobin, hematocrit, platelets, white blood cell count with differential blood count), standard chemistry (sodium, potassium, chloride, bicarbonate, calcium, phosphorous, urea nitrogen, creatinine, uric acid, total protein, albumin, LDH, γ Glutamyl Transferase [γGT]), Vitamin E (alpha tocopherol) and other Fat Soluble Vitamins, cortisol (and reflexive ACTH levels, as needed, followed by ACTH stimulation test, as needed), Gonadal Hormone Assessments, Hepatitis C antibody, liver panel (ALT, AST, ALP, and total bilirubin), and CPK; vital signs including heart rate and blood pressure; and 12-lead ECG.
# The safety population included all randomized patients who received at least one dose or part of a dose of the double-blind IMP.
# Safety analyses were descriptive, performed on the safety population according to treatment actually received. The safety analysis focused on the TEAE period defined as the time from the first dose of double-blind injection up to 70 days after the last double-blind injection. TEAE which developed, worsened or became serious or PCSA occurring after the patient's first injection in the open-label extension study (LTS13643) were not considered in the TEAE period. TEAE period was truncated at the common study cut-off date.
substance,measurement,setting,value
"Alirocumab: human anti-PCSK9 antibody; HCVR SEQ ID NO:1, LCVR SEQ ID NO:6; CDRs SEQ ID NOs 2/3/4/7/8/10","TEAEs by System-Organ-Class: Investigations (lab parameters), % of patients",[1],3.7% (21)
same,"TEAEs by System-Organ-Class: Metabolism and nutrition disorders, % of patients",[1],8.0% (45)
same,"TEAEs by System-Organ-Class: Musculoskeletal and connective tissue disorders, % of patients",[1],22.6% (127)
same,"TEAEs by System-Organ-Class: Neoplasms, benign, malignant (incl cysts/polyps), % of patients",[1],3.0% (17)
same,"TEAEs by System-Organ-Class: Nervous system disorders, % of patients",[1],11.2% (63)
same,"TEAEs by System-Organ-Class: Psychiatric disorders, % of patients",[1],4.3% (24)
same,"TEAEs by System-Organ-Class: Renal and urinary disorders, % of patients",[1],3.6% (20)
same,"TEAEs by System-Organ-Class: Reproductive system and breast disorders, % of patients",[1],2.0% (11)
same,"TEAEs by System-Organ-Class: Respiratory, thoracic, and mediastinal disorders, % of patients",[1],7.7% (43)
same,"TEAEs by System-Organ-Class: Skin and subcutaneous tissue disorders, % of patients",[1],6.9% (39)
same,"TEAEs by System-Organ-Class: Vascular disorders, % of patients",[1],5.0% (28)
same,"TEAEs leading to discontinuation, % of patients",[1],3.6% (20)
same,"TEAEs, % of patients",[1],71.9% (404)
same,"Treatment-emergent SAEs, % of patients",[1],14.6% (82)
same,"AE of special interest: All adjudicated cardiovascular events, % of patients",[2],4.0% (62)
same,"AE of special interest: General allergic reaction events, % of patients",[2],9.0% (140)
same,"AE of special interest: Haemolytic anaemia, % (n) of patients",[2],0
same,"AE of special interest: Neurocognitive disorders, % of patients",[2],1.2% (18)
same,"AE of special interest: Neurological events, % of patients",[2],4.2% (65)
same,"AE of special interest: Ophthalmological events, % of patients",[2],2.5% (38)
same,"AE of special interest: Treament-emergent local injection site reactions, % of patients",[2],5.8% (90)
same,"Neurocognitive AE: Amnesia, % of patients",[2],0.3% (5)
same,"Neurocognitive AE: Any neurocognitive disorder, % of patients",[2],1.2% (18)
same,"Neurocognitive AE: Confusion postoperative, % of patients",[2],<0.1% (1)
same,"Neurocognitive AE: Confusional state, % of patients",[2],0.3% (4)
same,"Neurocognitive AE: Dementia, % of patients",[2],<0.1% (1)
same,"Neurocognitive AE: Disorientation, % of patients",[2],<0.1% (1)
same,"Neurocognitive AE: Disturbance in attention, % of patients",[2],<0.1% (1)
same,"Neurocognitive AE: Frontotemporal dementia, % of patients",[2],<0.1% (1)
same,"Neurocognitive AE: Memory impairment, % of patients",[2],0.3% (5)
same,"Neurocognitive AE: Transient global amnesia, % of patients",[2],<0.1% (1)
same,"TEAE ALT increase, % of patients",[2],1.1%
same,"TEAE AST increase, % of patients",[2],0.2%
same,"TEAE Angina pectoris, % of patients",[2],2.1% (32)
same,"TEAE Arthralgia, % of patients",[2],4.5% (70)
same,"TEAE Atrial fibrillation, % of patients",[2],1.4% (22)
same,"TEAE Back pain, % of patients",[2],4.7% (73)
same,"TEAE Bronchitis, % of patients",[2],5.2% (80)
same,"TEAE CPK increase, % of patients",[2],0.5%
same,"TEAE Cellulitis, % of patients",[2],1.4% (22)
same,"TEAE Confusion, % of patients",[2],2.3% (35)
same,"TEAE Constipation, % of patients",[2],1.9% (30)
same,"TEAE Cough, % of patients",[2],3.2% (49)
same,"TEAE Depression, % of patients",[2],1.8% (28)
same,"TEAE Diabetes in patients with history of diabetes (Company MedDRA Query ""diabetes""), number as printed",[2],48
same,"TEAE Diabetes in patients with no history of diabetes (Company MedDRA Query ""diabetes""), number as printed",[2],19
same,"TEAE Diarrhea, % of patients",[2],5.3% (82)
same,"TEAE Dizziness, % of patients",[2],2.5% (38)
same,"TEAE Fall, % of patients",[2],2.8% (43)
same,"TEAE Fatigue, % of patients",[2],3.0% (47)
same,"TEAE Gastoenteritis, % of patients",[2],2.4% (37)
same,"TEAE Headache, % of patients",[2],4.8% (74)
same,"TEAE Hypertension, % of patients",[2],3.5% (54)
same,"TEAE Influenza, % of patients",[2],5.4% (84)
same,"TEAE Injection site reaction, % of patients",[2],5.7% (89)
same,"TEAE Muscle spasms, % of patients",[2],3.7% (58)
same,"TEAE Musculoskeletal pain, % of patients",[2],2.3% (36)
same,"TEAE Myalgia, % of patients",[2],4.9% (76)
same,"TEAE Nasopharyngitis, % of patients",[2],12.6% (196)
same,"TEAE Nausea, % of patients",[2],2.4% (37)
same,"TEAE Non-cardiac chest pain, % of patients",[2],1.8% (28)
same,"TEAE Osteoarthritis, % of patients",[2],2.3% (35)
same,"TEAE Pain in extremity, % of patients",[2],3.0% (46)
same,"TEAE Rhinitis, % of patients",[2],1.4% (22)
same,"TEAE Sinusitis, % of patients",[2],2.6% (40)
same,"TEAE Type-2 diabetes mellitus, % of patients",[2],1.7% (27)
same,"TEAE leading to death, % of patients",[2],0.5% (7)
same,"TEAEs by System-Organ-Class: Blood and lymphatic system disorders, % of patients",[2],2.4% (37)
same,"TEAEs by System-Organ-Class: Cardiac disorders, % of patients",[2],9.1% (141)
same,"TEAEs by System-Organ-Class: Ear and labyrinth disorders, % of patients",[2],2.0% (31)
same,"TEAEs by System-Organ-Class: Eye disorders, % of patients",[2],6.5% (100)
same,"TEAEs by System-Organ-Class: Gastrointestinal disorders, % of patients",[2],18.6% (288)
same,"TEAEs by System-Organ-Class: General disorders and administration site conditions, % of patients",[2],15.4% (238)
same,"TEAEs by System-Organ-Class: Injury, poisoning, and procedural complications, % of patients",[2],13.4% (207)
same,"TEAEs by System-Organ-Class: Investigations (lab parameters), % of patients",[2],6.1% (95)
same,"TEAEs by System-Organ-Class: Metabolism and nutrition disorders, % of patients",[2],9.1% (141)
same,"TEAEs by System-Organ-Class: Musculoskeletal and connective tissue disorders, % of patients",[2],27.2% (422)
same,"TEAEs by System-Organ-Class: Neoplasms, benign, malignant (incl cysts/polyps), % of patients",[2],2.5% (38)
same,"TEAEs by System-Organ-Class: Nervous system disorders, % of patients",[2],17.0% (264)
same,"TEAEs by System-Organ-Class: Psychiatric disorders, % of patients",[2],5.9% (91)
same,"TEAEs by System-Organ-Class: Renal and urinary disorders, % of patients",[2],4.6% (72)
same,"TEAEs by System-Organ-Class: Reproductive system and breast disorders, % of patients",[2],2.5% (38)
same,"TEAEs by System-Organ-Class: Respiratory, thoracic, and mediastinal disorders, % of patients",[2],11.0% (171)
same,"TEAEs by System-Organ-Class: Skin and subcutaneous tissue disorders, % of patients",[2],9.1% (141)
same,"TEAEs by System-Organ-Class: Vascular disorders, % of patients",[2],7.9% (122)
same,"TEAEs leading to discontinuation, % of patients",[2],6.2% (96)
same,"TEAEs, % of patients",[2],78.6% (1218)
same,"Treatment-emergent SAEs, % of patients",[2],16.5% (255)
same,Injection-site reactions,final analysis,5.9%
same,Myalgia,final analysis,5.4%
same,Neurocognitive events,final analysis,1.2%
same,Ophthalmological events,final analysis,2.9%
same,Patients with two consecutive calculated LDL cholesterol levels of less than 25 mg/dL (575 patients),final analysis,38%
same,Treatment-emergent adverse events,final analysis,81%
same,Treatment-emergent adverse events leading to study-drug discontinuation,final analysis,7.2%
same,"Alanine aminotransferase > 3 × ULN, % of patients",pre-specified analysis,1.6%
same,"Alanine aminotransferase > 3 × ULN, n/N of patients",pre-specified analysis,25/1532
same,"Aspartate aminiotransferase >3 × ULN, % of patients",pre-specified analysis,1.2%
same,"Aspartate aminiotransferase >3 × ULN, n/N of patients",pre-specified analysis,19/1532
same,"Creatine kinase > 3 × ULN, % of patients",pre-specified analysis,3.3%
same,"Creatine kinase > 3 × ULN, n/N of patients",pre-specified analysis,50/1507
same,Deaths reported during the study,pre-specified analysis,11 (0.7%) n (%)
same,Diarrhea (TEAE preferred term),pre-specified analysis,5.3%
same,Headache (TEAE preferred term),pre-specified analysis,4.8%
same,Hemolytic anaemia,pre-specified analysis,No case
same,Influenza (TEAE preferred term),pre-specified analysis,5.4%
same,Injection site reaction (TEAE preferred term),pre-specified analysis,5.7%
same,Nasopharyngitis (TEAE preferred term),pre-specified analysis,12.6%
same,Neurocognitive disorders,pre-specified analysis,18 (1.2%) n (%)
same,"Patients with LDL-C <25 mg/dL in two or more consecutive periods, share of population treated with alirocumab (562 out of 1550)",pre-specified analysis,36.3%
same,Patients with impaired glucose control at baseline defined as diabetic in the TEAE period,pre-specified analysis,36 (6.3%) n (%)
same,Patients with two consecutive calculated LDL-C values <25 mg/dL (<0.65 mmo/L),pre-specified analysis,562 (37.4%) n (%)
same,SOC gastrointestinal disorders,pre-specified analysis,18.6%
same,SOC general disorders and administration site conditions,pre-specified analysis,15.4%
same,"SOC injury, poisoning and procedural complications",pre-specified analysis,13.4%
same,SOC musculoskeletal and connective tissue disorders,pre-specified analysis,27.2%
same,SOC nervous system disorders,pre-specified analysis,17.0%
same,"SOC respiratory, thoracic and mediastinal disorders",pre-specified analysis,11.0%
same,Safety in patients with two consecutive calculated LDL-C <25 mg/dL,pre-specified analysis,No particular safety concern
same,TEAE leading to death,pre-specified analysis,7 (0.5%) n (%)
same,Time to first injection site reaction,pre-specified analysis,57 days
same,Treatment-emergent local injection site reaction,pre-specified analysis,90 (5.8%) n (%)

# Source: patent US20160137746A1, “METHODS FOR TREATING HIGH CARDIOVASCULAR RISK PATIENTS WITH HYPERCHOLESTEROLEMIA” (Sanofi Biotechnology, priority 2014, published 2016)
